# Laboratory results published in patent US20240199757A1 (UNIVERSITY OF CHICAGO, published 2024).
# Like-named read-outs stand apart in the source and are kept apart here.
# T1: murine NT5E expressed on 4T1 cells (murine, UniProt Q61503 29-551)
# T1 construct: whole, on cells; also called mouse NT5E-expressing 4T1 cells
# T1 sequence (looked up): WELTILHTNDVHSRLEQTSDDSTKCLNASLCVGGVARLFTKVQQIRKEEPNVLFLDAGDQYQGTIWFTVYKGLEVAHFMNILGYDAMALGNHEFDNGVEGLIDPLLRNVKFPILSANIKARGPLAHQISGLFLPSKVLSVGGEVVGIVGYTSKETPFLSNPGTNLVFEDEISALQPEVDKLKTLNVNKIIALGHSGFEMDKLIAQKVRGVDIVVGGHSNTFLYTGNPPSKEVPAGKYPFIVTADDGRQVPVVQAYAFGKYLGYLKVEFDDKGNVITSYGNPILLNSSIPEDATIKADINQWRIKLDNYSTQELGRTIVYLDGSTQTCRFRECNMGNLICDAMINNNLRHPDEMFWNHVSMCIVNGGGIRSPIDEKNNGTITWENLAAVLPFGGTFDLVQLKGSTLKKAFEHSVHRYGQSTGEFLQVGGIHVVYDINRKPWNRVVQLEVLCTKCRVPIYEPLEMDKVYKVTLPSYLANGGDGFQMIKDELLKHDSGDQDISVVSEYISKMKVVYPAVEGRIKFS
# T2: human NT5E expressed on MDA-MB-231 cells (human, UniProt P21589 27-549)
# T2 construct: whole, on cells; also called NT5E-expressing MDA-MB-231 cells; CD73
# T2 sequence (looked up): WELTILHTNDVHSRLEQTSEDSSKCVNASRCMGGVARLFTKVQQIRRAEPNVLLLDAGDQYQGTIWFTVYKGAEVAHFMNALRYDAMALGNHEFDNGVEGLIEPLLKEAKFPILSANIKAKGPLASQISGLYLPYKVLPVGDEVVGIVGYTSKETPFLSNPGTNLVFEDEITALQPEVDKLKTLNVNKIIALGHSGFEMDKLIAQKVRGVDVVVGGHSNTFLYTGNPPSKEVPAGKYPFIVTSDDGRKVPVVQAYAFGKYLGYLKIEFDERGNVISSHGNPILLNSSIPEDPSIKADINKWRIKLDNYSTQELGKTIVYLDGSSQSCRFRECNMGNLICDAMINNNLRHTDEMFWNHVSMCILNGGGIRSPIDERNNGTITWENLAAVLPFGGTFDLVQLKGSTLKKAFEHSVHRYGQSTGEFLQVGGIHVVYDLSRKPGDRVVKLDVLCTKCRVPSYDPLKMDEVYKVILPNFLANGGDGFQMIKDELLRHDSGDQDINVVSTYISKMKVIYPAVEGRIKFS
# Legend:
# [1] = molecular target: T1, murine NT5E expressed on 4T1 cells; test: flow cytometry on 4T1 cells, single Fab concentration, -ATP
# Procedure: (§1) Human MDA-MB-231 cells and murine 4T1 cells were grown to 90% confluency, detached with 5 mM EDTA for 15 min at 37° C. and then resuspended in 37° C. lx PBS (#10010031, Gibco) supplemented with 1% FBS and 1OpM ZnCl2. Separate working buffers (WB) of PBS and 1% FBS with or without fixed nucleotide concentrations were used throughout all washing steps to maintain constant condition. In 96-well plates (#3799, Costar), 0.2×10⁶ cells were added per well. The plates were spun at 500×g for 5 min and the supernatant was removed. Anti-NT5E antibodies were diluted to the desired concentration in 100 μL WB, added to the cells and the plates were incubated for 20 min at 37° C. Plates were spun and cells were washed twice with WB then spun a second time. Cells were stained with 100 μL of secondary antibody (Alexa Fluor 647 AffiniPure Goat Anti-Human IgG, F(ab′)2 fragment specific, #109-605-006, Jackson, 1:200) dilution and plates were incubated for 20 min at 37° C. Cells were washed twice with WB then fixed on ice with WB supplemented with 0.5% PFA. Fixing solution was removed by centrifugation and cells were resuspended in cold 1× PBS. Samples were analyzed by flow cytometry using CytoFLEX (Beckman Coulter) and mean fluorescence intensity (MFI) data was extracted using FlowJo software. Resulting binding data was plotted using OriginLab.
# [2] = molecular target: T2, human NT5E expressed on MDA-MB-231 cells; test: flow cytometry on MDA-MB-231 cells, 1 mM ATP
# Procedure: (§2) Flow cytometry analysis of antibodies binding to human NT5E expressed on MDA-MB-231 cells in ATP-free condition (black) or in 1 mM ATP (red). Top panel: (left) 1780 Fab and (right) 1780 IgG titrations. […] Binding was measured at the indicated range of antibody concentrations and is expressed as mean±st. dev of median fluorescence intensity (MFI) of 1-2 replicates. Data were analyzed using OriginLab, and EC₅₀ values are shown next to the fitted curves.
# as §1
# [3] = molecular target: T2, human NT5E expressed on MDA-MB-231 cells; test: flow cytometry on MDA-MB-231 cells, 1 mM ATP; remark: listed apart in the source
# Procedure: as §2, §1
binder,measurement,setting,value
"1780 Fab (Fab, V domains shown) VH: EVQLVESGGGLVQPGGSLRLSCAASGFNFYSYSIHWVRQAPGKGLEWVASISSSSGYTYYADSVKGRFTISADTSKNTAYLQMNSLRAEDTAVYYCARYSWWGWHMEGWWGYMNAFDYWGQGTLVTV VL: DIQMTQSPSSLSASVGDRVTITCRASQSVSSAVAWYQQKPGKAPKLLIYSASSLYSGVPSRFSGSRSGTDFTLTISSLQPEDFATYYCQQAHPKPITFGQGTKVEIKR",binding result,[1],no binding (tested: 200 nM)
same,EC50,[2],37 nM
same,EC50,[3],40.8 nM
